Experimental data as given in paper PMC8133395 (Cell reports, 2021).

B1: EBOV-442 (recombinant IgG1) (antibody, V domains shown)
VH: EVQLVESGGGLVKPGGSLRLSCTGSGGTGFTFKYAGMSWVRQAPGKGPEWIGRIKSRIDGGTTDYAAPVKDRFIVSRDDSRNTLYLQMNSLKTEDTAVYYCATGSGKGPSASFGESYYYYDFINVWGKGTTVTVSS
VL: ESVLTQSPGTLSLSPGERATLSCRASQSISRKYLAWYQQKPGQAPRLLIYGSSSRATGIPDRFSGSGSGTDFTLTISRLEPEDFAVYYCHQYESSPWTFGQGTKVEIK
notes: IgG1; source: ExpiCHO, transiently transfected, purified (HiTrap MabSelect Sure)
B2: BDBV-289 (recombinant IgG1) (antibody, V domains shown)
VH: QVQLVQSGAEVKKPGSSVKVSCKASGATFGSDTVTWVRQAPGQGLEWMGGIIPFFGEANYAQRFQGRVTITADKSTNTAYMELSSLRSEDTAVYFCARQINEMATFGEIHYYTYMDVWGQGTLVTVSS
VL: GSELTQDPAVSVALGQTVRITCQGDSLRNYYASWYQQKPRQAPVLVFYGKNNRPSGIPDRFSGSSSGNTASLTISGAQAEDEADYYCNSRDSSSNHLVFGGGTKLTVL
notes: IgG1; source: FreeStyle-293-F, transiently transfected, purified (mAb Select, SEC)
B3: BDBV-329 (recombinant IgG1) (antibody, V domains shown)
VH: QVQLVQSGAEVKKPGSSVKVSCKASGGTFDTYAISWVRQAPGQGLEWMGGIIPVLGIVDYAQKFQGRVTITAAKFTNIAYMELSSLRSEDAAVYYCARGLRSLSPRGQEGPTPAPGWRRAQYHYYYMDVWGTGTLVTVSS
VL: EIVMTQSPGTLSLSPGERATLSCRASQSVSSNYLAWYQQKPGQAPRLLIYGASSRATGIPDRFSGSGSGPDFTLTISRLEPEDFAVYYCQQYGSSPGTFGGGTKVEIK
notes: IgG1; also called BDB-329; source: ExpiCHO, transiently transfected, purified (HiTrap MabSelect Sure)
B4: EBOV-437 (recombinant IgG1) (antibody, V domains shown)
VH: QVQLVQSGAEVKKPGSSVKVSCKASGGTFSRDIFSWVRQAPGQGLEWMGGIIPIFGTANYAQKFQGRVTITADKSTSTVFMELSGLRSEDTAVYFCARGPPLRGERSWFGESEKYDYFYMDVWGKGTTVTVSS
VL: QIVLTQSPGTLSLSPGERATLSCRASQSVSNSYLAWYQQKPGQAPRLLIYGASSRATGIPDRFSGSGSGTDFTLSISRLEPEDFAVYYCQQYGTSPCTFGQGTKLEIK
notes: as for B1
B5: BDBV-43 (recombinant IgG1) (antibody, V domains shown)
VH: QVQLVQSGAEVKKPGSSVKVSCRASGDSFSRKYGISWVRQAPGQGFEWMGTIMPIVGLTTSAQKFQGRVTITADKSTSTAHMELNSLTSEDTAIYYCARDEIIGARPHWFDSWGQGTLVTVSS
VL: EIVMTQSPAIMSVSPGKRATLSCRASQSVSSNLAWYQRKPGQAPRLLIYGSSTRATGIPARFSGSGSGTEFTLTISSLQSEDFAVYYCLQYYNWPRTFGQGTKVEIK
notes: source: FreeStyle-293-F, transiently transfected, purified (mAb Select, SEC)
B6: EBOV-296 (recombinant IgG1) (antibody, V domains shown)
VH: QVQLVESGPGLVKPSQTLSLICTVSGGSISSGDFYWSWIRQPPGKGLEWIGFFYYSGITYYNPSLKSRVSISRDTSTNQFSLKLRSVTAADTAVYYCARVRGGRITLGQGDMYYYSGMDVWGQGTLVTVSS
VL: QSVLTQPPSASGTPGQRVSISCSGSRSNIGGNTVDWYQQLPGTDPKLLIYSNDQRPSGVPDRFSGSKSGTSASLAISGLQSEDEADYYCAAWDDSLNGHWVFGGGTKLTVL
notes: as for B5
B7: EBOV-293 (recombinant IgG1) (antibody, V domains shown)
VH: QVQLVQSGAEVKKPGSSVKVSCKASGGTFIDYTYNWVRQAPGQGLVWMGRVVPGLGLSSYAQQFEDRVTITAAKSTSTVYMELRGLTSEDTAMYYCARDTASFGWLPFAFWGQGTLVTVSS
VL: QTVMTQSPGTLSLSPGERATLSCGVSQSISSTYFAWYQQKVGQAPRLLIYGASNRASGIPDRFSGSASGTDFTLTISRVEPEDFAVYYCQQYGSSPTFGQGTRLEIK
notes: as for B5
B8: EBOV-237 (recombinant IgG1) (antibody, V domains shown)
VH: QVQLQESGPGLVKPSGTLSLTCAVSGGSISNGIWWSWVRQPPGKGLEWIGEIYHSGSTNYSPSLKSRVTISLDKSKNQFSLKLNSVTAADTAVYYCARAPSQFDFSDWLVPQGAMFRGHYIDYWGQGTLVTVSS
VL: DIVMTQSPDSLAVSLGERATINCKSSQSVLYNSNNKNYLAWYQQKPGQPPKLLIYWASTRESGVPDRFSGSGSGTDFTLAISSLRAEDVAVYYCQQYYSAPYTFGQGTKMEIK
notes: as for B1

These binders were tested against T1, EBOV sGP (Mayinga) (Zaire ebolavirus, Mayinga, GenBank …, UniProt P60170) (assay: ELISA). Conditions: both partners purified.
T1 construct: source: FreeStyle-293-F, transiently transfected, purified (Strep-Tactin, SEC)
T1 sequence (P60170 33-314): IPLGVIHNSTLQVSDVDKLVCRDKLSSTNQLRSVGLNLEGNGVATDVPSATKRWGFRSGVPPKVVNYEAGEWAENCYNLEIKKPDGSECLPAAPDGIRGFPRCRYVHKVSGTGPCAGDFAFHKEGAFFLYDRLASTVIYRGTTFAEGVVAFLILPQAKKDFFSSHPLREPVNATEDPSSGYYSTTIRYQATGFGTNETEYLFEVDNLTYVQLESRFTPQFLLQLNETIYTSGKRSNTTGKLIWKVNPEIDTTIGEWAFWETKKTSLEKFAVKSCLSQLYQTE
B1: binds.
B2: binds.
B3: binds.
B4: binds.
B5: binds.
B6: binds.
B7: binds.
B8: binds.
